# Changes are numbered by the printed parent chain.
# Legend:
# Nluc-Y2R-eYFP D/E35-39K [1] = molecular target: T1, Nluc-Y2R-eYFP D/E35-39K (Homo sapiens, UniProt P49146, D35K/E37K/E39K); assay: NanoBRET ligand dissociation; assay type: binding; details: koff, charge reversal in the acidic patches
# T1 construct: expressed in transfected cells; host or cells: HEK293, transiently transfected, membrane preparations
# T1 sequence (P49146 1-381 D35K/E37K/E39K): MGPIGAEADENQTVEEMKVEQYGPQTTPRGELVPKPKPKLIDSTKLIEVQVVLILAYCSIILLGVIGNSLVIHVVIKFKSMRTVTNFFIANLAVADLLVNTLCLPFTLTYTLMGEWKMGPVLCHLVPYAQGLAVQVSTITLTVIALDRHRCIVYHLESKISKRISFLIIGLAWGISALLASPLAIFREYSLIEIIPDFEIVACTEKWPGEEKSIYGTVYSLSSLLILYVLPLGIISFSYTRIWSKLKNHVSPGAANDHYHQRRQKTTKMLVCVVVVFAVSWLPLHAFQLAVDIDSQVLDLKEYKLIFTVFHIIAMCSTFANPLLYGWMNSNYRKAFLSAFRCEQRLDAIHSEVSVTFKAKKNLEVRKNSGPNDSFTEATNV
# Protocol: (§1) Briefly, for each data point, membranes containing 0.03 μg total protein were suspended in ice-cold BRET binding buffer (Hank’s balanced salt solution (HBSS) containing 20 mM HEPES (pH 7.4), 0.1% bovine serum albumin (BSA)). The assay was performed in solid black 96-WP with a total assay volume of 100 μL in technical duplicate or triplicate. […] To determine unspecific binding, 100 µM of the Y2R antagonist JNJ-31020028 (Selleck Europe) were added to each well. […] To start the dissociation measurement, the antagonist JNJ-31020028 was added to a final concentration of 50 µM (20 µL) using the built-in injector system of the plate reader and the BRET decay was measured for 20 min. Raw BRET was calculated as the ratio of fluorescence to luminescence, and the background value of the unspecific binding controls was subtracted to obtain the netBRET signal.
# Nluc-Y2R-eYFP E15-20K = molecular target: T2, Nluc-Y2R-eYFP E15-20K (Homo sapiens, UniProt P49146, E15K/E16K/E20K); assay: NanoBRET ligand dissociation; assay type: binding; details: koff, charge reversal in the acidic patches
# T2 construct: expressed in transfected cells; host or cells: membrane preparations of transiently transfected HEK293
# T2 sequence (P49146 1-381 E15K/E16K/E20K): T1 sequence (P49146 1-381 D35K/E37K/E39K) with E15K, E16K, E20K, K35D, K37E, K39E
# Protocol: as §1
# Nluc-Y2R-eYFP Δ2-41 [2] = molecular target: T3, Nluc-Y2R-eYFP Δ2-41 (Homo sapiens, UniProt P49146); assay: NanoBRET ligand dissociation; assay type: binding; details: koff
# T3 construct: expressed in transfected cells; host or cells: membrane preparations of transiently transfected HEK293
# T3 sequence (P49146 with tags, fused parts or gaps): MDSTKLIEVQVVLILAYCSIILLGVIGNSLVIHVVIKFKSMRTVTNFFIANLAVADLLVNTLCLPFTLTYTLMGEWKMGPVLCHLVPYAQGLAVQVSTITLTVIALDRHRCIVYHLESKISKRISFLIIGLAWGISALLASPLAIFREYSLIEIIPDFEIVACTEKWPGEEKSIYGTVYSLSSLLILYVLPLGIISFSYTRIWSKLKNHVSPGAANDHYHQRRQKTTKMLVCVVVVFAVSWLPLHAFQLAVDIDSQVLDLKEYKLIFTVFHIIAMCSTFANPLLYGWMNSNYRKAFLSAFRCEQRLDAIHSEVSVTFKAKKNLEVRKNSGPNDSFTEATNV
# Protocol: as §1
# Nluc-Y2R-eYFP D/E35-39K [3] = molecular target: T1, Nluc-Y2R-eYFP D/E35-39K; assay: NanoBRET equilibrium ligand binding
# Protocol: as §1
# [4] = molecular target: T4, Nluc-Y2R-eYFP D42A-S43A-T44A (Homo sapiens, UniProt P49146, D42A/S43A/T44A); assay: NanoBRET equilibrium ligand binding
# T4 construct: expressed in transfected cells; host or cells: membrane preparations of transiently transfected HEK293
# T4 sequence (P49146 1-381 D42A/S43A/T44A): T1 sequence (P49146 1-381 D35K/E37K/E39K) with K35D, K37E, K39E, D42A, S43A, T44A
# Protocol: as §1
# Nluc-Y2R-eYFP Δ2-41 [5] = molecular target: T3, Nluc-Y2R-eYFP Δ2-41; assay: NanoBRET equilibrium ligand binding
# Protocol: as §1
substance,measurement,setting,value
K18-Tamra-NPY: tetramethylrhodamine(Tamra)-labeled peptide (K^18-Tamra-NPY),Increase of ligand dissociation vs wild-type,Nluc-Y2R-eYFP D/E35-39K [1],two to three-fold
same,Increase of ligand dissociation vs wild-type,Nluc-Y2R-eYFP E15-20K,two to three-fold
same,Increase of ligand dissociation vs wild-type,Nluc-Y2R-eYFP Δ2-41 [2],two to three-fold
same,BRETmax,"Nluc-Y2R-eYFP D/E35-39K [3]; HEK293 membranes, 10 min RT, mean, 95% CI 0.025 to 0.0287",0.0270
same,Fraction high affinity,"Nluc-Y2R-eYFP D/E35-39K [3]; mean, 95% CI 0 to 0.1938",0.0957
same,"KD, high replicates (log)",Nluc-Y2R-eYFP D/E35-39K [3]; replicate 1,-9.38
same,"KD, low replicates (log)",Nluc-Y2R-eYFP D/E35-39K [3]; replicate 1,-6.53
same,"KD, high replicates (log)",Nluc-Y2R-eYFP D/E35-39K [3]; replicate 2,-9.46
same,"KD, low replicates (log)",Nluc-Y2R-eYFP D/E35-39K [3]; replicate 2,-6.67
same,"KD, high replicates (log)",Nluc-Y2R-eYFP D/E35-39K [3]; replicate 3,-10.11
same,"KD, low replicates (log)",Nluc-Y2R-eYFP D/E35-39K [3]; replicate 3,-6.65
same,BRETmax,"[4]; HEK293 membranes, 10 min RT, mean, 95% CI 0.0040 to 0.0080",0.0060
same,Low-affinity state affinity reduction vs wild-type,"[4]; NanoBRET, HEK293 membranes",about three-fold reduced
same,Fraction high affinity,"[4]; mean, 95% CI 0.0649 to 0.2365, P<0.01 vs WT",0.1507
same,"KD, high replicates (log)",[4]; replicate 1,-9.81
same,"KD, low replicates (log)",[4]; replicate 1,-6.11
same,"KD, high replicates (log)",[4]; replicate 2,-11.68
same,"KD, low replicates (log)",[4]; replicate 2,-6.26
same,"KD, high replicates (log)",[4]; replicate 3,-9.11
same,"KD, low replicates (log)",[4]; replicate 3,-5.98
same,BRETmax,"Nluc-Y2R-eYFP Δ2-41 [5]; HEK293 membranes, 10 min RT, mean, 95% CI 0.5907 to 0.7133, P<0.0001 vs WT",0.6520
same,Low-affinity binding constant reduction vs wild-type,"Nluc-Y2R-eYFP Δ2-41 [5]; NanoBRET, HEK293 membranes",about two-fold reduced
same,Fraction high affinity,"Nluc-Y2R-eYFP Δ2-41 [5]; mean, 95% CI 0.0357 to 0.0467",0.0412
same,"KD, high replicates (log)",Nluc-Y2R-eYFP Δ2-41 [5]; replicate 1,-9.51
same,"KD, low replicates (log)",Nluc-Y2R-eYFP Δ2-41 [5]; replicate 1,-6.16
same,"KD, high replicates (log)",Nluc-Y2R-eYFP Δ2-41 [5]; replicate 2,-9.76
same,"KD, low replicates (log)",Nluc-Y2R-eYFP Δ2-41 [5]; replicate 2,-6.18
same,"KD, high replicates (log)",Nluc-Y2R-eYFP Δ2-41 [5]; replicate 3,-9.64
same,"KD, low replicates (log)",Nluc-Y2R-eYFP Δ2-41 [5]; replicate 3,-6.21
